Test results as given in publication doi:10.1101/2023.02.28.527262, “Tozorakimab (MEDI3506): a dual-pharmacology anti-IL-33 antibody that inhibits IL-33 signalling via ST2 and RAGE/EGFR to reduce inflammation and epithelial dysfunction” (bioRxiv, 2023).

Biological target: T1, soluble serum stimulated 2 (sST2) (UniProt Q01638-2 19-328)
T1 construct: ST2 (IL1RL1), truncated soluble isoform that lacks the transmembrane and intracellular domains of ST2L; also called soluble ST2; IL1RL1; source: recombinant; expression and purification described previously [21]; receptor glycoproteins re-monomerized by Superdex 200 SEC
T1 sequence (looked up): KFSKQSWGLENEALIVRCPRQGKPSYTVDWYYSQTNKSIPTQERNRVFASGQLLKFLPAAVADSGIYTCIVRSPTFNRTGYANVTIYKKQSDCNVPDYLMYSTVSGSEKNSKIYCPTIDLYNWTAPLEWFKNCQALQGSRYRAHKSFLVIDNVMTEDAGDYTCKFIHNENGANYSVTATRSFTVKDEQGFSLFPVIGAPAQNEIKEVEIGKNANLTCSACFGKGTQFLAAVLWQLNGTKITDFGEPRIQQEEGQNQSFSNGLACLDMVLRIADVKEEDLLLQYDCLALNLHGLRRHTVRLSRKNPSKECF
Assay: KinExA; kinetic exclusion assay in free solution; IL-33^red titrated into fixed sST2 (30 pM and 2.0 pM); 1:1 binding model fitted to two datasets; association rate also by KinExA
Details: both partners purified

B1: reduced interleukin-33 (IL-33^red), residues 112–270 (ligand, human, UniProt O95760 112-270, looked up)
chain: SITGISPITEYLASLSTYNDQSITFALEDESYEIYVEDLKKDEKKDKVLLSYYESQHPSNESGDGVDGKMLMVTLSPTKDFWLHANNKEHSVELHKCEKPLPDQAFFVLHNMHSNCVSFECKTDPGVFIGVKDNHLALIKVDSSENLCTENILFKLSET
notes: Interleukin-33, human, residues 112-270, reduced form (free cysteines); also called wild-type IL-33; source: recombinant; expression and purification described previously [21]
  Kd: 0.09 pM
  kon: 1.5e+08 M⁻¹ s⁻¹
